Target: T1, Ror2(518–525) peptide (human)
T1 chain: REEFRHEA
Test: crystal structure

B1: PFA1 Fab (Fab fragment of the monoclonal anti-Aβ antibody PFA1, Protofibril antibody 1) (Fab, V domains shown)
VH: QVTLKESGPGILKPSQTLSLTCSFSGFSLSTSGMGVGWIRQPSGKGLEWLAHIWWDDDRSYNPSLKSQLTISKDAARNQVFLRITSVDTADTATYYCVRRAHTTVLGDWFAYWGQGTLVTVSA
VL: DVLMTQTPLSLPVSLGDQASISCRSSQSIVHSNGNTYLEWYLQKPGQSPKLLIYKVSNRFSGVPDRFSGSGSGTDFTLKISRVEAEDLGVYYCFQGSHVPLTFGAGTKLELK
binding result: binds
